Experimental data as given in the Immune Epitope Database (IEDB).
Blank lines part the entries; values can stand above or below the sequence they belong to.

Key:
HLA-A*11:01 = experiment: IEDB peptide-MHC binding, purified MHC/direct/fluorescence; filed as Kd, often an IC50 or EC50 that approximates it; ≥ and ≤ were set here for values at or beyond the usual limits of such assays; conditions: source organism: Yersinia pestis
HLA-A*02:12 [1] = experiment: as above; conditions: source organism: Yersinia pestis CA88-4125
HLA-B*58:01 = experiment: as above; conditions: source organism: Yersinia pestis
HLA-B*27:05 = experiment: as above; conditions: source organism: Yersinia pestis
HLA-B*08:01 = experiment: as above; conditions: source organism: Yersinia pestis CA88-4125
HLA-B*40:01 = experiment: as above; conditions: source organism: Yersinia pestis
HLA-A*01:01 = experiment: as above; conditions: source organism: Yersinia pestis
HLA-A*02:03 [2] = experiment: as above; conditions: source organism: Yersinia pestis CA88-4125
HLA-A*02:11 [3] = experiment: as above; conditions: source organism: Yersinia pestis CA88-4125
HLA-A*03:01 [4] = experiment: as above; conditions: source organism: Yersinia pestis
HLA-B*07:02 = experiment: as above; conditions: source organism: Yersinia pestis
HLA-A*31:01 [5] = experiment: as above; conditions: source organism: Yersinia pestis
HLA-B*44:02 = experiment: as above; conditions: source organism: Yersinia pestis
HLA-B*08:02 = experiment: as above; conditions: source organism: Yersinia pestis CA88-4125
HLA-A*02:19 [6] = experiment: as above; conditions: source organism: Yersinia pestis CA88-4125
HLA-A*02:16 [7] = experiment: as above; conditions: source organism: Yersinia pestis CA88-4125
HLA-A*69:01 [8] = experiment: as above; conditions: source organism: Yersinia pestis
HLA-A*02:01 [9] = experiment: as above; conditions: source organism: Yersinia pestis
HLA-B*15:01 [10] = experiment: as above; conditions: source organism: Yersinia pestis
HLA-A*02:06 = experiment: as above; conditions: source organism: Yersinia pestis CA88-4125
HLA-A*02:50 = experiment: IEDB peptide-MHC binding, purified MHC/competitive/fluorescence; filed as Kd, often an IC50 or EC50 that approximates it; ≥ and ≤ were set here for values at or beyond the usual limits of such assays; conditions: source organism: Yersinia pestis Nepal516
HLA-A*31:01 [11] = experiment: IEDB peptide-MHC binding, purified MHC/competitive/fluorescence; ≥ and ≤ were set here for values at or beyond the usual limits of such assays; conditions: source organism: Homo sapiens
HLA-B*27:03 = experiment: IEDB peptide-MHC binding, purified MHC/competitive/fluorescence; filed as Kd, often an IC50 or EC50 that approximates it; ≥ and ≤ were set here for values at or beyond the usual limits of such assays; conditions: source organism: Entamoeba histolytica HM-1:IMSS
HLA-A*02:12 [12] = experiment: as above; conditions: source organism: Entamoeba histolytica HM-1:IMSS
HLA-A*26:01 = experiment: as above; conditions: source organism: Entamoeba histolytica HM-1:IMSS
HLA-A*68:02 = experiment: as above; conditions: source organism: Entamoeba histolytica HM-1:IMSS
HLA-A*02:03 [13] = experiment: as above; conditions: source organism: Entamoeba histolytica HM-1:IMSS
HLA-A*23:01 = experiment: as above; conditions: source organism: Entamoeba histolytica HM-1:IMSS
HLA-A*29:02 = experiment: as above; conditions: source organism: Entamoeba histolytica HM-1:IMSS
HLA-A*02:11 [14] = experiment: as above; conditions: source organism: Entamoeba histolytica HM-1:IMSS
HLA-A*03:01 [15] = experiment: as above; conditions: source organism: Entamoeba histolytica HM-1:IMSS
HLA-B*39:01 = experiment: as above; conditions: source organism: Entamoeba histolytica HM-1:IMSS
HLA-A*80:01 = experiment: as above; conditions: source organism: Entamoeba histolytica HM-1:IMSS
HLA-A*24:03 = experiment: as above; conditions: source organism: Entamoeba histolytica HM-1:IMSS
HLA-A*02:19 [16] = experiment: as above; conditions: source organism: Entamoeba histolytica HM-1:IMSS
HLA-B*46:01 = experiment: as above; conditions: source organism: Entamoeba histolytica HM-1:IMSS
HLA-B*57:01 = experiment: as above; conditions: source organism: Entamoeba histolytica HM-1:IMSS
HLA-B*51:01 = experiment: as above; conditions: source organism: Entamoeba histolytica HM-1:IMSS
HLA-A*02:16 [17] = experiment: as above; conditions: source organism: Entamoeba histolytica HM-1:IMSS
HLA-A*69:01 [18] = experiment: as above; conditions: source organism: Entamoeba histolytica HM-1:IMSS
HLA-B*18:01 = experiment: as above; conditions: source organism: Entamoeba histolytica HM-1:IMSS
HLA-A*25:01 = experiment: as above; conditions: source organism: Entamoeba histolytica HM-1:IMSS
HLA-A*02:01 [19] = experiment: as above; conditions: source organism: Entamoeba histolytica HM-1:IMSS
HLA-B*15:17 = experiment: as above; conditions: source organism: Entamoeba histolytica HM-1:IMSS
HLA-B*15:01 [20] = experiment: as above; conditions: source organism: Entamoeba histolytica HM-1:IMSS

Sequence: FLPPQIPVI
Kd (HLA-A*11:01): ≥ 20 µM
Kd (HLA-A*02:12 [1]): ≤ 0.001 µM
Kd (HLA-B*58:01): ≥ 20 µM
Kd (HLA-B*27:05): ≥ 20 µM
Kd (HLA-B*08:01): ≥ 20 µM
Kd (HLA-B*40:01): ≥ 20 µM
Kd (HLA-A*01:01): ≥ 20 µM
Kd (HLA-A*02:03 [2]): ≤ 0.001 µM
Kd (HLA-A*02:11 [3]): ≤ 0.001 µM
Kd (HLA-A*03:01 [4]): ≥ 20 µM
Kd (HLA-B*07:02): ≥ 20 µM
Kd (HLA-A*31:01 [5]): ≥ 20 µM
Kd (HLA-B*44:02): ≥ 20 µM
Kd (HLA-B*08:02): ≥ 20 µM
Kd (HLA-A*02:19 [6]): 0.018 µM
Kd (HLA-A*02:16 [7]): ≤ 0.001 µM
Kd (HLA-A*69:01 [8]): 4.7 µM
Kd (HLA-A*02:01 [9]): 0.0214 µM
Kd (HLA-B*15:01 [10]): 0.477 µM
Kd (HLA-A*02:06): ≤ 0.001 µM
Kd (HLA-A*02:50): ≤ 0.0001 µM

IC50 (HLA-A*31:01 [11]): 0.388 µM
Sequence: TMGTGTFGR

Sequence: LICYQIEYI
Kd (HLA-B*27:03): ≥ 20 µM
Kd (HLA-A*02:12 [12]): ≥ 20 µM
Kd (HLA-A*26:01): ≥ 20 µM
Kd (HLA-A*68:02): ≥ 20 µM
Kd (HLA-A*02:03 [13]): ≥ 20 µM
Kd (HLA-A*23:01): ≥ 20 µM
Kd (HLA-A*29:02): ≥ 20 µM
Kd (HLA-A*02:11 [14]): 0.0008 µM
Kd (HLA-A*03:01 [15]): ≥ 20 µM
Kd (HLA-B*39:01): ≥ 20 µM
Kd (HLA-A*80:01): ≥ 20 µM
Kd (HLA-A*24:03): ≥ 20 µM
Kd (HLA-A*02:19 [16]): ≥ 20 µM
Kd (HLA-B*46:01): ≥ 20 µM
Kd (HLA-B*57:01): ≥ 20 µM
Kd (HLA-B*51:01): ≥ 20 µM
Kd (HLA-A*02:16 [17]): ≥ 20 µM
Kd (HLA-A*69:01 [18]): ≥ 20 µM
Kd (HLA-B*18:01): ≥ 20 µM
Kd (HLA-A*25:01): ≥ 20 µM
Kd (HLA-A*02:01 [19]): ≥ 20 µM
Kd (HLA-B*15:17): ≥ 20 µM
Kd (HLA-B*15:01 [20]): ≥ 20 µM
